This is an account of results in patent US20220064301A1 (XILIO DEVELOPMENT, published 2022).

Experiment [1] addresses T1, human CTLA4-Fc (R&D #7268-CT) (human, UniProt P16410 36-162).
T1 construct: Bought reagent coated on ELISA plates; also called human CTLA-Fc; not shown: Fc part of the bought fusion; not described
Kind of experiment: huCTLA4-Fc binding ELISA (luminescence). The procedure:
All ELISA were performed in a manner substantially similar to the description below or generally consistent with methods known in the art. Polystyrene 96-well microplates (Fisher #07-200-591) were coated with 1 μg/mL of human CTLA4-Fc (R&D #7268-CT) per well and stored overnight at 4° C. Plates were washed with 0.05% Tween in TBS (TBS-T), blocked with 1% BSA (Sigma Aldrich #B4287-25G), and washed with TBS-T. Serial dilutions of samples containing anti-CTLA4 antibodies described below were made in assay buffer (PBS+0.05% Tween+1% BSA), added to plate, and shaken orbitally at 100 RPM at room temperature for one hour. After washing with TBS-T, anti-human Kappa light chain [clone: SB81a]-HRP (Abcam #ab79115) diluted to 1:8000 in assay buffer was applied to the wells and shaken at room temperature for one hour. Plates were washed with TBS-T, HRP substrate (Super Signal Pico Chemiluminescent Substrate, Thermo #37069) was applied to plate, and luminescence was recorded using a spectrophotometer (BioTek). Data was analyzed with GraphPad Prism.

Experiment [2] concerns the target T2, human CTLA4 (huCTLA4) (human, UniProt P16410 36-161, limits assumed). Kind of experiment: SPR, Biacore T200, 37 C. How it is done: (§1) All Surface Plasmon Resonance (SPR) analysis were performed in a manner substantially similar to the description below or generally consistent with methods known in the art. SPR was performed on certain antibodies to assess binding between the antibody, or fragment thereof, and a target protein, such as human CTLA4 (huCTLA4), cynomolgus CTLA4 (cynoCTLA4), or FcγRIIIa (CD16a). […] SPR analysis was performed on a GE Biacore T200 instrument at 37° C. The antibody and isotype control (reference channel) were coupled at 100 RU immobilization level to CM5 chip (GE Healthcare). Peptides were synthesized and diluted into HBS-EP+ running buffer (GE Healthcare). The binding data were analyzed using Biacore Evaluation Software, version 3.0.

Experiment [3] concerns the target cynomolgus CTLA4 (cynoCTLA4) (cynomolgus, UniProt G7PL88 36-161). Kind of experiment: SPR, Biacore T200, 37 C. The procedure: as §1
The target of experiment [4] is T2, human CTLA4 (huCTLA4). Kind of experiment: SPR, Biacore T200, 37 C; reference ipilimumab. The procedure: as §1
Experiment [5] has as its target T2, human CTLA4 (huCTLA4). Kind of experiment: SPR (Biacore), fit of the sensorgrams of FIG. 2A. The procedure: as §1
In experiment [6] the target is T3, FcγRIIIa on Jurkat effector cells (FcγRIIIa reporter bioassay). Kind of experiment: cell-based or functional assay.
T3 sequence (P08637 whole entry): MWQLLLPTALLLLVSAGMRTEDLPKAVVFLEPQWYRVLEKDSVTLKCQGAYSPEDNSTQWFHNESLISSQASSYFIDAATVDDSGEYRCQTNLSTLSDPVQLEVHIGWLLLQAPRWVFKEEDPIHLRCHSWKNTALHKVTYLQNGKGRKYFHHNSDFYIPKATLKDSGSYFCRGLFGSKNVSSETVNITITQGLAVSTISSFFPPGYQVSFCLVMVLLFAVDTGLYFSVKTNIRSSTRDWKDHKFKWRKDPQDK
Experiment [7] deals with T3, FcγRIIIa on Jurkat effector cells …. The experiment can be described thus: cell-based or functional assay. This is another data set of the same source.
Experiment [8] shares this target. The experiment can be described thus: cell-based or functional assay. This is another data set of the same source.
For experiment [9], the target named is T4, cynoCTLA4-Fc (cynomolgus, UniProt G7PL88 36-161).
T4 construct: also called cynomolgus CTLA4-Fc
T4 sequence (G7PL88 entry or part of it limits assumed): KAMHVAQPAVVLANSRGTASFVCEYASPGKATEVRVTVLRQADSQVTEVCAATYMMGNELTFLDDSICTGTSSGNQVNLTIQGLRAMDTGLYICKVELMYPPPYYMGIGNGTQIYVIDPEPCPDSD
Kind of experiment: SPR, channel Ch2. The procedure: as §1

The target in experiment [10] is T5, rhCTLA4-Fc (recombinant human CTLA4-Fc) (human, UniProt P16410 36-162, limits assumed).
T5 construct: Used in SPR with the Fabs; not shown: Fc part; not described
T5 sequence (P16410 36-162 limits assumed): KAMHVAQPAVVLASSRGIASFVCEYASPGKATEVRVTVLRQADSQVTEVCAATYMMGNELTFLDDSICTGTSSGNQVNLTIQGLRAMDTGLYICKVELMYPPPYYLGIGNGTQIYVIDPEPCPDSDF
The experiment can be described thus: SPR, channel Ch2. The procedure:
as §1

In experiment [11] the target is T4, cynoCTLA4-Fc. Kind of experiment: SPR, channel Ch1. How it is done: as §1
For experiment [12], the target named is T5, rhCTLA4-Fc (recombinant human CTLA4-Fc). Kind of experiment: SPR, channel Ch1. The procedure:
as §1

Experiment [13] concerns the target T4, cynoCTLA4-Fc. The experiment can be described thus: SPR, average of three channels. The procedure: as §1
Experiment [14] deals with T5, rhCTLA4-Fc (recombinant human CTLA4-Fc). Kind of experiment: SPR, average of three channels. The procedure:
as §1

Experiment [15] has as its target T4, cynoCTLA4-Fc. Kind of experiment: SPR, channel Ch3. The procedure:
as §1

Experiment [16] concerns the target T5, rhCTLA4-Fc (recombinant human CTLA4-Fc). The experiment can be described thus: SPR, channel Ch3. The procedure:
as §1

Like-named read-outs stand apart in the source and are kept apart here.

T2 sequence (P16410 36-161 limits assumed): as the sequence (G7PL88 entry or part of it limits assumed) above, with N14S, T18I, M106L counted along it
T1 sequence (P16410 36-162 limits assumed): as the sequence (P16410 36-162 limits assumed) above
cynomolgus CTLA4 (cynoCTLA4), sequence (G7PL88 entry or part of it limits assumed): as the sequence (G7PL88 entry or part of it limits assumed) above

B1: Antibody 2-1 (version of humanized anti-CTLA4 Antibody 2 having a wild-type Fc region) (antibody)
VH: not shown
VL: EIVLTQSPDFQSVTPKEKVTITCSANSALSYMYWYQQKPDQSPKLWVHGTSNLASGVPSRFSGSGSGTDFTLTINSLEAEDAATYYCHHWSNTQWTFGGGTKVEIKRTVAAPSVFIFPPSDEQLKSGTASVVCLLNNFYPREAKVQWKVDNALQSGNSQESVTEQDSKDSTYSLSSTLTLSKADYEKHKVYACEVTHQGLSSPVTKSFNRGEC
notes: Full antibody with wild-type Fc; copies: 2 + 2
Take B1: a half-maximal effect in experiment [1] (EC50) was put at 330 pM.

B2: Antibody 2-6 (a version of Antibody 2 having a S239D mutation, an I332E mutation in the Fc region) (antibody)
VH: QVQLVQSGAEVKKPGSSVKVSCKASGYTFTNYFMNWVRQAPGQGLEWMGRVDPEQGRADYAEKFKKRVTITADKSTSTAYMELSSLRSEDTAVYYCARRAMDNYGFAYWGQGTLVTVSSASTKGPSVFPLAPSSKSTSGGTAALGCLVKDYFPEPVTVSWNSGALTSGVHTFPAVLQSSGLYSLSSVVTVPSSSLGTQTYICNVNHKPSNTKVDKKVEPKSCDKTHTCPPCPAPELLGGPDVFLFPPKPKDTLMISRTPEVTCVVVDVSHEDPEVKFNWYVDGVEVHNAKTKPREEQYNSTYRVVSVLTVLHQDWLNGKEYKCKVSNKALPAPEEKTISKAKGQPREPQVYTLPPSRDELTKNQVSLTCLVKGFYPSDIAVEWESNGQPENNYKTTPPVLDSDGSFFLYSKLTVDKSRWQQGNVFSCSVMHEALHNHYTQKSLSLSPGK
VL: EIVLTQSPDFQSVTPKEKVTITCSANSALSYMYWYQQKPDQSPKLWVHGTSNLASGVPSRFSGSGSGTDFTLTINSLEAEDAATYYCHHWSNTQWTFGGGTKVEIKRTVAAPSVFIFPPSDEQLKSGTASVVCLLNNFYPREAKVQWKVDNALQSGNSQESVTEQDSKDSTYSLSSTLTLSKADYEKHKVYACEVTHQGLSSPVTKSFNRGEC
notes: copies: 2 + 2
On to B2, for which the values for the equilibrium dissociation constant (Kd) (with human CTLA4 (huCTLA4) [2]; in experiment [3]) were 91 pM and 131 pM, respectively. Moreover, in the experiment with human CTLA4 (huCTLA4) [4], the “fold greater binding affinity than ipilimumab (by KD)” value was about 18 fold. The molecule also yielded a koff with human CTLA4 (huCTLA4) [5] of 3.33e-05 s⁻¹. Also, the kon with human CTLA4 (huCTLA4) [5] came to 366000 M⁻¹ s⁻¹.

B3: Antibody 1-1 (version of humanized anti-CTLA4 Antibody 1 having a wild-type Fc region) (antibody, V domains shown)
VH: QVQLQESGPGLVKPSETLSLTCSVTYHTITSGYDWTWIRKPPGKGMEWIGYISYSGNTNYNPSLKSRVTISRDTSKNQFFLKLSSVTAADTAVYYCASMMVPHYYVMDAWGQGTLVTVSSA
VL: DIVMTQTPLSLSVTPGQPASISCRSSQSLLNSDGNTYLYWYLQKPGQSPQLLIYLVSKLGSGVPNRFSGSGSGTDFTLKISRVEAEDVGVYYCVQGTHDPWTFGGGTKVEIKR
notes: VL 25 / VH 26 are inferred from the parallel a)/b) order of the embodiments and because 30/31 go with the CDRs of Antibody 2; Full antibody with wild-type Fc
For B3, the “EC50 of reporter activation (RLU), ADCC FcγRIIIa reporter bioassay with CTLA4 target cells” value (shortened to “EC50 of reporter activation (RLU)”) in experiment [6] was 1.05 ng/mL. The molecule also showed an EC50 in experiment [1] of 410 pM.

B4: Antibody 1-aFuc (afucosylated version of Antibody 1) (antibody, V domains shown)
VH: QVQLQESGPGLVKPSETLSLTCSVTYHTITSGYDWTWIRKPPGKGMEWIGYISYSGNTNYNPSLKSRVTISRDTSKNQFFLKLSSVTAADTAVYYCASMMVPHYYVMDAWGQGTLVTVSSA
VL: DIVMTQTPLSLSVTPGQPASISCRSSQSLLNSDGNTYLYWYLQKPGQSPQLLIYLVSKLGSGVPNRFSGSGSGTDFTLKISRVEAEDVGVYYCVQGTHDPWTFGGGTKVEIKR
modifications: afucosylated Fc glycan
notes: Variable domains inferred as for Antibody 1-1; Afucosylated full antibody
As for B4, the “EC50 of reporter activation (RLU)” value in experiment [6] and in [7] was 0.163 ng/mL each time. Further, the EC50 in experiment [1] amounted to 410 pM.

B5: Antibody 1-2 (version of Antibody 1 having a S239D mutation and an I332E mutation in the Fc region) (antibody, V domains shown)
VH: QVQLQESGPGLVKPSETLSLTCSVTYHTITSGYDWTWIRKPPGKGMEWIGYISYSGNTNYNPSLKSRVTISRDTSKNQFFLKLSSVTAADTAVYYCASMMVPHYYVMDAWGQGTLVTVSSA
VL: DIVMTQTPLSLSVTPGQPASISCRSSQSLLNSDGNTYLYWYLQKPGQSPQLLIYLVSKLGSGVPNRFSGSGSGTDFTLKISRVEAEDVGVYYCVQGTHDPWTFGGGTKVEIKR
notes: Variable domains inferred as for Antibody 1-1; Full antibody with S239D and I332E in the Fc region
On to B5, for which the “EC50 of reporter activation (RLU)” value in experiment [6] was determined as 0.327 ng/mL. Besides, in experiment [1], a half-maximal effect (EC50) was put at 560 pM.

B6: Antibody 2-aFuc (afucosylated version of Antibody 2) (antibody, V domains shown)
VH: QVQLVQSGAEVKKPGSSVKVSCKASGYTFTNYFMNWVRQAPGQGLEWMGRVDPEQGRADYAEKFKKRVTITADKSTSTAYMELSSLRSEDTAVYYCARRAMDNYGFAYWGQGTLVTVSSA
VL: EIVLTQSPDFQSVTPKEKVTITCSANSALSYMYWYQQKPDQSPKLWVHGTSNLASGVPSRFSGSGSGTDFTLTINSLEAEDAATYYCHHWSNTQWTFGGGTKVEIKR
modifications: afucosylated Fc glycan
notes: Afucosylated full antibody
Turning to B6, in [1], the EC50 was determined as 360 pM. Further, the “EC50 of reporter activation (RLU)” value in experiment [7] and in experiment [8] was 0.0177 ng/mL throughout.

B7: Antibody 2-Fab (a Fab of Antibody 2) (Fab, V domains shown)
VH: QVQLVQSGAEVKKPGSSVKVSCKASGYTFTNYFMNWVRQAPGQGLEWMGRVDPEQGRADYAEKFKKRVTITADKSTSTAYMELSSLRSEDTAVYYCARRAMDNYGFAYWGQGTLVTVSS
VL: EIVLTQSPDFQSVTPKEKVTITCSANSALSYMYWYQQKPDQSPKLWVHGTSNLASGVPSRFSGSGSGTDFTLTINSLEAEDAATYYCHHWSNTQWTFGGGTKVEIKR
notes: Fab
With B7, the Kd in the experiment with cynoCTLA4-Fc [9] turned out to be 794 pM; in experiment [10], 1.51 pM; with cynoCTLA4-Fc [11] it was 623 pM; in [12] it was 4.53 pM; with cynoCTLA4-Fc [13], 779 pM; in [14], 3.86 pM. Also, the Kd is 920 pM in the experiment with cynoCTLA4-Fc [15] and 5.55 pM in [16]. In addition, the koff was found to be 0.000229 s⁻¹ with cynoCTLA4-Fc [9]; 5.19e-07 s⁻¹ in experiment [10]; 0.000226 s⁻¹ with cynoCTLA4-Fc [11]; 1.63e-06 s⁻¹ in experiment [12]; 0.000234 s⁻¹ with cynoCTLA4-Fc [15]; 1.84e-06 s⁻¹ in [16]. For the same molecule, the kon in the experiment with cynoCTLA4-Fc [9] was 289000 M⁻¹ s⁻¹; in [10], 345000 M⁻¹ s⁻¹; in the experiment with cynoCTLA4-Fc [11], 363000 M⁻¹ s⁻¹; in experiment [12], 361000 M⁻¹ s⁻¹; with cynoCTLA4-Fc [15], 254000 M⁻¹ s⁻¹; in experiment [16], 331000 M⁻¹ s⁻¹.
